# Laboratory results as given in paper PMC11638594 (Molecular Therapy. Methods & Clinical Development, 2024).
# Target: AAV8 capsid (adeno-associated virus serotype 8) (adeno-associated virus 8, UniProt Q8JQF8)
# Test: cryo-EM structure
binder,measurement,value
AAVX nanobody (CaptureSelect Biotin Anti-AAVX Conjugate; ligand of the POROS CaptureSelect AAVX affinity resin) (VHH) VHH: QVQIQESGGGIVQAGGSLRLSCAASGRTHGMYAMGWFRQAPGKEREFVAVQDITASNTHYSSAVKGRFTLSRDNAKNTAYLQMNNLKPEDTAVYYCAAGPTLMSGSYNSARDYDYWGQGTQVTVSS,stoichiometry N,2 nanobodies per 5-fold
